Patent publication US20260201008A1, “SECRETIN-DERIVED GLP1R SELECTIVE AGONISTS” (GUBRA A/S, priority 2023, published 2026)
Numbered stars: 1 amine (or outer) side, 2 acyl side, 3 side chain; on linkers, the order of the positions; unused ones are H or OH. Square brackets hold non-standard residues; d marks the D form. Side chains are listed from the residue outwards. Ends that are not written are not given here. * marks the point of attachment. C20 diacid = O=C(O)CCCCCCCCCCCCCCCCCCC(=O)*; γGlu = O=C(O)[C@H](CCC(=O)[*:2])N[*:1]; AEEA = NCCOCCOCC(=O)O; Aib = CC(C)(N)C(=O)O

B1: SEQ ID NO: 180 (peptide)
peptide: H[Aib]EGTFTSDVSELLEGAALQRFIQWLV-NH2
modifications: N-terminus assumed
SMILES: CC[C@H](C)[C@H](NC(=O)[C@H](Cc1ccccc1)NC(=O)[C@H](CCCNC(=N)N)NC(=O)[C@H](CCC(N)=O)NC(=O)[C@H](CC(C)C)NC(=O)[C@H](C)NC(=O)[C@H](C)NC(=O)CNC(=O)[C@H](CCC(=O)O)NC(=O)[C@H](CC(C)C)NC(=O)[C@H](CC(C)C)NC(=O)[C@H](CCC(=O)O)NC(=O)[C@H](CO)NC(=O)[C@@H](NC(=O)[C@H](CC(=O)O)NC(=O)[C@H](CO)NC(=O)[C@@H](NC(=O)[C@H](Cc1ccccc1)NC(=O)[C@@H](NC(=O)CNC(=O)[C@H](CCC(=O)O)NC(=O)C(C)(C)NC(=O)[C@@H](N)Cc1c[nH]cn1)[C@@H](C)O)[C@@H](C)O)C(C)C)C(=O)N[C@@H](CCC(N)=O)C(=O)N[C@@H](Cc1c[nH]c2ccccc12)C(=O)N[C@@H](CC(C)C)C(=O)N[C@H](C(N)=O)C(C)C
B2: SEQ ID NO: 181 (peptide)
peptide: H[Aib]EGTFTSDVSYLLEGAALQRFIQWLV-NH2
modifications: N-terminus assumed
SMILES: CC[C@H](C)[C@H](NC(=O)[C@H](Cc1ccccc1)NC(=O)[C@H](CCCNC(=N)N)NC(=O)[C@H](CCC(N)=O)NC(=O)[C@H](CC(C)C)NC(=O)[C@H](C)NC(=O)[C@H](C)NC(=O)CNC(=O)[C@H](CCC(=O)O)NC(=O)[C@H](CC(C)C)NC(=O)[C@H](CC(C)C)NC(=O)[C@H](Cc1ccc(O)cc1)NC(=O)[C@H](CO)NC(=O)[C@@H](NC(=O)[C@H](CC(=O)O)NC(=O)[C@H](CO)NC(=O)[C@@H](NC(=O)[C@H](Cc1ccccc1)NC(=O)[C@@H](NC(=O)CNC(=O)[C@H](CCC(=O)O)NC(=O)C(C)(C)NC(=O)[C@@H](N)Cc1c[nH]cn1)[C@@H](C)O)[C@@H](C)O)C(C)C)C(=O)N[C@@H](CCC(N)=O)C(=O)N[C@@H](Cc1c[nH]c2ccccc12)C(=O)N[C@@H](CC(C)C)C(=O)N[C@H](C(N)=O)C(C)C
B3: SEQ ID NO: 179 (peptide)
peptide: H[Aib]EGTFTSDVS[Aib]LLEGAALQRFIQWLV-NH2
modifications: N-terminus assumed
SMILES: CC[C@H](C)[C@H](NC(=O)[C@H](Cc1ccccc1)NC(=O)[C@H](CCCNC(=N)N)NC(=O)[C@H](CCC(N)=O)NC(=O)[C@H](CC(C)C)NC(=O)[C@H](C)NC(=O)[C@H](C)NC(=O)CNC(=O)[C@H](CCC(=O)O)NC(=O)[C@H](CC(C)C)NC(=O)[C@H](CC(C)C)NC(=O)C(C)(C)NC(=O)[C@H](CO)NC(=O)[C@@H](NC(=O)[C@H](CC(=O)O)NC(=O)[C@H](CO)NC(=O)[C@@H](NC(=O)[C@H](Cc1ccccc1)NC(=O)[C@@H](NC(=O)CNC(=O)[C@H](CCC(=O)O)NC(=O)C(C)(C)NC(=O)[C@@H](N)Cc1c[nH]cn1)[C@@H](C)O)[C@@H](C)O)C(C)C)C(=O)N[C@@H](CCC(N)=O)C(=O)N[C@@H](Cc1c[nH]c2ccccc12)C(=O)N[C@@H](CC(C)C)C(=O)N[C@H](C(N)=O)C(C)C
B4: SEQ ID NO: 178 (peptide)
peptide: H[Aib]EGTFTSDVSRLLEGAALQRFIQWLV-NH2
modifications: N-terminus assumed
SMILES: CC[C@H](C)[C@H](NC(=O)[C@H](Cc1ccccc1)NC(=O)[C@H](CCCNC(=N)N)NC(=O)[C@H](CCC(N)=O)NC(=O)[C@H](CC(C)C)NC(=O)[C@H](C)NC(=O)[C@H](C)NC(=O)CNC(=O)[C@H](CCC(=O)O)NC(=O)[C@H](CC(C)C)NC(=O)[C@H](CC(C)C)NC(=O)[C@H](CCCNC(=N)N)NC(=O)[C@H](CO)NC(=O)[C@@H](NC(=O)[C@H](CC(=O)O)NC(=O)[C@H](CO)NC(=O)[C@@H](NC(=O)[C@H](Cc1ccccc1)NC(=O)[C@@H](NC(=O)CNC(=O)[C@H](CCC(=O)O)NC(=O)C(C)(C)NC(=O)[C@@H](N)Cc1c[nH]cn1)[C@@H](C)O)[C@@H](C)O)C(C)C)C(=O)N[C@@H](CCC(N)=O)C(=O)N[C@@H](Cc1c[nH]c2ccccc12)C(=O)N[C@@H](CC(C)C)C(=O)N[C@H](C(N)=O)C(C)C
B5: SEQ ID NO: 177 (peptide)
peptide: H[Aib]EGTFTSDVSFLLEGAALQRFIQWLV-NH2
modifications: N-terminus assumed
SMILES: CC[C@H](C)[C@H](NC(=O)[C@H](Cc1ccccc1)NC(=O)[C@H](CCCNC(=N)N)NC(=O)[C@H](CCC(N)=O)NC(=O)[C@H](CC(C)C)NC(=O)[C@H](C)NC(=O)[C@H](C)NC(=O)CNC(=O)[C@H](CCC(=O)O)NC(=O)[C@H](CC(C)C)NC(=O)[C@H](CC(C)C)NC(=O)[C@H](Cc1ccccc1)NC(=O)[C@H](CO)NC(=O)[C@@H](NC(=O)[C@H](CC(=O)O)NC(=O)[C@H](CO)NC(=O)[C@@H](NC(=O)[C@H](Cc1ccccc1)NC(=O)[C@@H](NC(=O)CNC(=O)[C@H](CCC(=O)O)NC(=O)C(C)(C)NC(=O)[C@@H](N)Cc1c[nH]cn1)[C@@H](C)O)[C@@H](C)O)C(C)C)C(=O)N[C@@H](CCC(N)=O)C(=O)N[C@@H](Cc1c[nH]c2ccccc12)C(=O)N[C@@H](CC(C)C)C(=O)N[C@H](C(N)=O)C(C)C

How the values were obtained:
[1] = target: human GLP-1 receptor (hGLP1R) (human, UniProt P43220 24-463); assay: cell-based or functional assay
[2] = target: human secretin receptor (hSCTR) (human, UniProt P47872 23-440); assay: cell-based or functional assay
Sequence of human secretin receptor (hSCTR) (P47872 23-440): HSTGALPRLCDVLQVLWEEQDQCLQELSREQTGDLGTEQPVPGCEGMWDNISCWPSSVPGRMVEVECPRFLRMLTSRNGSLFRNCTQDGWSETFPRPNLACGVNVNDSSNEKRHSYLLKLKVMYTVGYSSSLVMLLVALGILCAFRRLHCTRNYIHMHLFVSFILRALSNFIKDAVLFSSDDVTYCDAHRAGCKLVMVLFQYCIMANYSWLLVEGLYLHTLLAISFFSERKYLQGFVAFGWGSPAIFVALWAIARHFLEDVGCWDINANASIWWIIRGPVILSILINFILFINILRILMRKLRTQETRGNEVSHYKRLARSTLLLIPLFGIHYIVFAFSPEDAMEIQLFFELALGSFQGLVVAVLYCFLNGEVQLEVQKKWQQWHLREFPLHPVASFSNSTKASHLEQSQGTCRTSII

| Binder | pEC50 hGLPR1 [1] | pEC50 hSCTR [2] |
| --- | --- | --- |
| B1 | 10.8 -log M | 6.7 -log M |
| H[Aib]LGTFTSDVSYLK([AEEA-AEEA-γGlu-C20 diacid])EEA[Aib]LQRFLEHLV-NH2 [SEQ ID NO: 170] | 10.6 -log M | 4.6 -log M |
| H[Aib]EGTFTSDVSFLK([AEEA-AEEA-γGlu-C20 diacid])EEA[Aib]LQRFLEHLV-NH2 [SEQ ID NO: 173] | 10.9 -log M | 6.8 -log M |
| H[Aib]EGTFTSDVSYLFEEA[Aib]LQRFLEK([AEEA-AEEA-γGlu-C20 diacid])LV-NH2 [SEQ ID NO: 176] | 10.5 -log M | 5.5 -log M |
| B2 | 10.3 -log M | 6.7 -log M |
| H[Aib]IGTFTSDVSYLK([AEEA-AEEA-γGlu-C20 diacid])EEA[Aib]LQRFLEHLV-NH2 [SEQ ID NO: 175] | 10.5 -log M | 5.1 -log M |
| B3 | 10.1 -log M | 6.3 -log M |
| H[Aib]HGTFTSDVSYLK([AEEA-AEEA-γGlu-C20 diacid])EEA[Aib]LQRFLEHLV-NH2 [SEQ ID NO: 171] | 9.8 -log M | 4.5 -log M |
| B4 | 10.2 -log M | 7.2 -log M |
| H[Aib]EGTFTSDVSELK([AEEA-AEEA-γGlu-C20 diacid])E[Aib]AAEQRFLEHLV-NH2 [SEQ ID NO: 18] | 10.5 -log M | 6.3 -log M |
| H[Aib]EGTFTSDVSWLK([AEEA-AEEA-γGlu-C20 diacid])EEA[Aib]LQRFLEHLV-NH2 [SEQ ID NO: 174] | 10.9 -log M | 7 -log M |
| H[Aib]EGTFTSDVSILK([AEEA-AEEA-γGlu-C20 diacid])EEA[Aib]LQRFLEHLV-NH2 [SEQ ID NO: 172] | 10.8 -log M | 7.7 -log M |
| B5 | 10.8 -log M | 6.3 -log M |
